Values of other authors, collected in publication PMC10558290.
Read-outs that look alike come from different tables or passages of the source.

Legend:
[1] = target: G-actin (Saccharomyces cerevisiae) (UniProt P60010)
[2] = target: G-actin (Saccharomyces cerevisiae) (UniProt P60010); remark: listed apart in the source

Chain of Srv2 (P17555 whole entry): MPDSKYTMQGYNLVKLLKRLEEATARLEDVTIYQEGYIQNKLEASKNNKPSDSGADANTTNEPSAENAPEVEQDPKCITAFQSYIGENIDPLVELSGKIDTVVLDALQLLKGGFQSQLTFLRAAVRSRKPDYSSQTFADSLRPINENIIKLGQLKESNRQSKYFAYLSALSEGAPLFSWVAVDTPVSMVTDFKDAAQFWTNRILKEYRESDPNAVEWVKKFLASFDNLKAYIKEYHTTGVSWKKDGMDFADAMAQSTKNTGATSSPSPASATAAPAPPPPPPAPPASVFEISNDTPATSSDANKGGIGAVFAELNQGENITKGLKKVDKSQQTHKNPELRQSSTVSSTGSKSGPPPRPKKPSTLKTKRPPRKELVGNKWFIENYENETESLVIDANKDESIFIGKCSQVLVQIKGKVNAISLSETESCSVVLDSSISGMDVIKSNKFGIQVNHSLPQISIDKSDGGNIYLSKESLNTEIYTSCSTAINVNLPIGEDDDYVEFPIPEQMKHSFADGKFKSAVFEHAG
Chain of Profilin Pfy1 (P07274 whole entry): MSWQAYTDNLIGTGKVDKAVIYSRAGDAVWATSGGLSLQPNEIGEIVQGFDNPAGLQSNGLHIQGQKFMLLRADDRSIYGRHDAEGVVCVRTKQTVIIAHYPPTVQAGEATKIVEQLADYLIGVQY

Kd [1] [nM]	Kd [2] [nM]	Substance
18		Srv2 (from UniProt P17555)
	100	Profilin Pfy1 (from UniProt P07274)
